Patent US20160002599A1
“And” between values parts separate entries of the source, which are not always exact repeats. Identical values can stand only once.

Target: von Willebrand factor (vWF)
Assay: cell-based or functional assay

Sequence of von Willebrand factor (vWF) (P04275 764-2813): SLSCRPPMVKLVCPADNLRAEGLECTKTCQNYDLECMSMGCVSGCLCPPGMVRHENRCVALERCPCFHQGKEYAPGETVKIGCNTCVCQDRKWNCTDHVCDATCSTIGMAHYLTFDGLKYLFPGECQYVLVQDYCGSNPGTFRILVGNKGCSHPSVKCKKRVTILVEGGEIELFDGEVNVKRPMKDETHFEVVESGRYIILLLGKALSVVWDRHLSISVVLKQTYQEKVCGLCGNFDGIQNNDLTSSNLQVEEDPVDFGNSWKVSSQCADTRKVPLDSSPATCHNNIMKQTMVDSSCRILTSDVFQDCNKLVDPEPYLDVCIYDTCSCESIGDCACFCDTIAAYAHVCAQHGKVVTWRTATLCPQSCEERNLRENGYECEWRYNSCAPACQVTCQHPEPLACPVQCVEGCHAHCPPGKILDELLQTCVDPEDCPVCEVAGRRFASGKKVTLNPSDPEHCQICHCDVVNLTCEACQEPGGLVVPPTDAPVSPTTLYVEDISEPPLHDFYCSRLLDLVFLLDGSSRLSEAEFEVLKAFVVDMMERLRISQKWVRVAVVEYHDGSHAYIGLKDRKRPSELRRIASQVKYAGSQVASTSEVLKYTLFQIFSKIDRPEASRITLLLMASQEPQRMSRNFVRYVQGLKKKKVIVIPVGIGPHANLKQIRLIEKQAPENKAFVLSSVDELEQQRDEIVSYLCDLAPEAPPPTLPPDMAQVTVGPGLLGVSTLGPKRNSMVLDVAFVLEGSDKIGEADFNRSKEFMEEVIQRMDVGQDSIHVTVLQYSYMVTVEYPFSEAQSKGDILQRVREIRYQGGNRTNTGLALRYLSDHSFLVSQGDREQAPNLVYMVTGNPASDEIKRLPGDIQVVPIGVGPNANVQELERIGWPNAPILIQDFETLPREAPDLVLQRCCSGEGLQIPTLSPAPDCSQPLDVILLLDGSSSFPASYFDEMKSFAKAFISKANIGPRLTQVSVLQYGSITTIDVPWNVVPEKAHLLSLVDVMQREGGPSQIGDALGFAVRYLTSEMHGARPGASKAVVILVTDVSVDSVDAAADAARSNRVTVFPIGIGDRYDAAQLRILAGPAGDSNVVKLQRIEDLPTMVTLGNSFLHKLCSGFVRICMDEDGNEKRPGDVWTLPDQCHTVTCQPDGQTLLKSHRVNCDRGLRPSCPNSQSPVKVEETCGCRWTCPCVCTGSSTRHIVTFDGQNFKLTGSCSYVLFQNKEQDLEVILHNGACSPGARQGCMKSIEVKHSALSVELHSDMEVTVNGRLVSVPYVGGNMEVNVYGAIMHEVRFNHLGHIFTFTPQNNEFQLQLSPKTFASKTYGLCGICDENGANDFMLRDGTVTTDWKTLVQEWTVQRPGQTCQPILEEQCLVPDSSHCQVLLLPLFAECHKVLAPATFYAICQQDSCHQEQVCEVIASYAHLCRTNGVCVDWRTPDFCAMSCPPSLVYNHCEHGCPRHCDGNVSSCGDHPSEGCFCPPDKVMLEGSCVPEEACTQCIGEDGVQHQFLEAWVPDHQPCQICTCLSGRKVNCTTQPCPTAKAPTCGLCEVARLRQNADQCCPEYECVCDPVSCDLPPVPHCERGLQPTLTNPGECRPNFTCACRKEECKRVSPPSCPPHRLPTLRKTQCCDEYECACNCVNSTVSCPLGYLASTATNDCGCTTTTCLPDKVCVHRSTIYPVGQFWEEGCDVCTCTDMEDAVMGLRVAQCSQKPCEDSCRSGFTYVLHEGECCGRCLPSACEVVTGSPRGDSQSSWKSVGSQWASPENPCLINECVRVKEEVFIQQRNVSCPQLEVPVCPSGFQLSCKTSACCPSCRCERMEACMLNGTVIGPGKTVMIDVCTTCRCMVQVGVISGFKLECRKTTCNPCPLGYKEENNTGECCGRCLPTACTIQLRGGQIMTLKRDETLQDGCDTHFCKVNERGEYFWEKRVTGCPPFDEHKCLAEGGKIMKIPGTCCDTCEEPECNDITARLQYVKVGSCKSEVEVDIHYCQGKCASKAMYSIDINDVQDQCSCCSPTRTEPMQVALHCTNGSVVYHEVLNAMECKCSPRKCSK

With “CD42b (from UniProt P07359 17-652) (receptor)” the platelets bound to the channel (chamber coated with 10 ug/mL vWF, flow rate 1600 s-1) was 62.3% and 75.8%.
